Test results reported in paper PMC2798008.

T1: SaeRHis (Staphylococcus aureus USA300, UniProt Q2FIT4 1-228)
T1 sequence: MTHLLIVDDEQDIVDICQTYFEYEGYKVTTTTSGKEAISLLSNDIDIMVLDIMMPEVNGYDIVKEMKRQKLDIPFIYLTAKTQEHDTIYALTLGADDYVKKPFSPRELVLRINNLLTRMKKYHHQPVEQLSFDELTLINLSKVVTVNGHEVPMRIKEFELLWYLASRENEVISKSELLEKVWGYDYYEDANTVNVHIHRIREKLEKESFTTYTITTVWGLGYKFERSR


Target: T1, SaeRHis
Assay: EMSA

| Binder | binding result |
| --- | --- |
| sbi promoter (dsDNA) DNA 1: CACTAGTTAATCTATTAGTTAACATTAGTTAATAATTAGTTAATTTCCAT DNA 2: ATGGAAATTAACTAATTATTAACTAATGTTAACTAATAGATTAACTAGTG | binds |
| agrB promoter (dsDNA) DNA 1: ATTTAACAGTTAAGTATTTATTTCCTACAGTTAGGCAATATAATGATAAA DNA 2: TTTATCATTATATTGCCTAACTGTAGGAAATAAATACTTAACTGTTAAAT | no binding |
